Experimental data published in patent US7727960B2, “C5a receptor antagonists” (Jerini AG, priority 2003, dated 2010).

Each substance was assayed against T1, human C5aR (CD88) (human, UniProt P21730 1-350) (assay: cell-based or functional assay).
T1 sequence (looked up): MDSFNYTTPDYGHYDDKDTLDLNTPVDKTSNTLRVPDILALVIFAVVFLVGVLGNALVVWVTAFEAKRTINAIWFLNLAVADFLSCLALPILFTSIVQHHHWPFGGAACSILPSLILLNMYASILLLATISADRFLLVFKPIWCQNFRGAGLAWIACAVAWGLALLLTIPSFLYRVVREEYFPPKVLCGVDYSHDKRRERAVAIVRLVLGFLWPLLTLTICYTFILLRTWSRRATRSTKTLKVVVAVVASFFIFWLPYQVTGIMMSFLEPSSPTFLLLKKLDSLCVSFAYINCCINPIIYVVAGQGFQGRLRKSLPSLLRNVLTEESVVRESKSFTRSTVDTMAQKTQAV
“Ac-Thi-Orn-Pip-cha-Bta-Phe-NH2 (peptide)” was tested, and the EC50, agonistic activity, enzyme release assay was over 100000 nM and the IC50 activity group, enzyme release assay was under 50 nM.
H-Phe-[Orn-Hyp-cha-Trp-Phe] (peptide) gave an IC50 activity group, enzyme release assay of under 50 nM.
Work on H-Phe-Cit-Pro-hle-Bta-Phe-NH2 (peptide) yielded an IC50 activity group, enzyme release assay of under 200 nM.
“Ac-Phe-Orn-Tic-cha-Trp-Phe-NH2 (peptide)” gave an IC50 activity group, enzyme release assay of under 200 nM.
“Ac-Phe-Orn-Pro-ctb-Bta-Phe-NH2 (peptide)” was tested, and the IC50 activity group, enzyme release assay was under 50 nM.
“Ac-Phe-Orn-Aze-cha-Bta-Phe-NH-Me (peptide)” was tested, and the IC50 activity group, enzyme release assay was under 2000 nM.
With “Ac-Phe-Orn-Pro-ctb-Eaa-Phe-NH2 (peptide)” the IC50 activity group, enzyme release assay was under 50 nM.
Ac-Phe-[Orn-Pro-hle-Bta-Nle] (peptide) gave an IC50 activity group, enzyme release assay of under 200 nM.
“Ac-Phe-Eec-Pro-cha-Bta-Phe-NH2 (peptide)” was tested, and the IC50 activity group, enzyme release assay was under 200 nM.
“Ac-Phe-Orn-Pro-cha-Bta-NH-CH(CH2OH)-CH2-Ph (peptide)” showed an IC50 activity group, enzyme release assay of under 200 nM.
“Ac-Phe-Orn-Pro-hle-Eaa-Phe-NH2 (peptide)” was tested, and the IC50 activity group, enzyme release assay was under 200 nM.
For H-Phe-[Orn-Hyp-hle-Pff-Hle] (peptide), the IC50 activity group, enzyme release assay was under 200 nM.
Work on “Ac-Phe-Orn-Pro-hle-Bta-Pcf-NH2 (peptide)” yielded an IC50 activity group, enzyme release assay of under 200 nM.
In the case of H-Phe-[Lys-Hyp-hle-Pff-Nle] (peptide), the IC50 activity group, enzyme release assay is reported as under 200 nM.
With Ac-Phe-[Orn-Pro-cha-Pff-Phe] (peptide) the IC50 activity group, enzyme release assay was under 200 nM.
Substance “Ac-Phe-Ffa-Pro-cha-Bta-Phe-NH2 (peptide)” has an IC50 activity group, enzyme release assay of under 50 nM.
For “hrC5a (from UniProt P01031 678-751) (ligand)”, the EC50, agonistic activity, enzyme release assay was 2.4 nM.
Ac-Phe-[Orn-Hyp-Mmf-Trp-Nle] (peptide) showed an IC50 activity group, enzyme release assay of under 200 nM.
For “Ac-Phe-Orn-Pro-hle-Dff-Phe-NH2 (peptide)”, the IC50 activity group, enzyme release assay was under 200 nM.
Substance “FAc-Phe-Orn-Pro-cha-Bta-Phe-NH2 (peptide)” has an IC50 activity group, enzyme release assay of under 50 nM.
“Ac-Phe-Orn-Pro-hle-Mmy-Phe-NH2 (peptide)” was tested, and the IC50 activity group, enzyme release assay was under 200 nM.
“Ac-Phe-Orn-Pro-ctb-Pff-Phe-NH2 (peptide)” showed an IC50 activity group, enzyme release assay of under 50 nM.
“Ac-Ser-Phe-Orn-Aze-cha-Bta-Phe-NH2 (peptide)” showed an IC50 activity group, enzyme release assay of under 20 nM.
Substance “Ac-Thr-Phe-Orn-Aze-cha-Bta-Phe-NH2 (peptide)” has an IC50 activity group, enzyme release assay of under 50 nM.
Ac-Phe-[Orn-Pro-cha-Pff-Nle] (peptide) was tested, and the IC50 activity group, enzyme release assay was under 200 nM.
H-Phe-[Orn-Hyp-hle-Pff-Leu] (peptide) was tested, and the IC50 activity group, enzyme release assay was under 200 nM.
“Ac-Phe-Orn-Aze-cha-Pcf-Phe-NH2 (peptide)” showed an IC50 activity group, enzyme release assay of under 2000 nM.
“Ac-Phe-Orn-Pro-cha-Bta-Cha-NH2 (peptide)” was tested, and the IC50 activity group, enzyme release assay was under 200 nM.
Work on H-Phe-[Orn-Ser-hle-Pff-Phe] (peptide) yielded an IC50 activity group, enzyme release assay of under 200 nM.
For “Me-O-CO-Phe-Orn-Pro-cha-Bta-Phe-NH2 (peptide)”, the IC50 activity group, enzyme release assay was under 200 nM.
H-Phe-[Orn-Pro-cha-Pff-Nle] (peptide) showed an IC50 activity group, enzyme release assay of under 200 nM.
“Ac-Phe-Orn-Pro-hle-6FW-Phe-NH2 (peptide)” gave an IC50 activity group, enzyme release assay of under 200 nM.
In the case of “Ac-Phe-Orn-Pro-cha-Bta-Eaa-NH2 (peptide)”, the IC50 activity group, enzyme release assay is reported as under 200 nM.
Substance “Ac-Phe-Ech-Pro-cha-Bta-Phe-NH2 (peptide)” has an IC50 activity group, enzyme release assay of under 200 nM.
“Ac-Phe-Orn-Pro-cha-Otf-Phe-NH2 (peptide)” gave an IC50 activity group, enzyme release assay of under 200 nM.
Substance “Ac-His-Phe-Orn-Aze-cha-Bta-Phe-NH2 (peptide)” has an IC50 activity group, enzyme release assay of under 200 nM.
In the case of “Ac-Phe-Orn-Pro-hle-Bta-Aic-NH2 (peptide)”, the IC50 activity group, enzyme release assay is reported as under 200 nM.
Substance Bzl-[Orn-Pro-cha-Bta-Nle] (peptide) has an IC50 activity group, enzyme release assay of under 200 nM.
In the case of “Ac-Phe-Orn-NMA-cha-Bta-Phe-NH2 (peptide)”, the IC50 activity group, enzyme release assay is reported as under 200 nM.
“Ac-Phe-Fco-Pro-cha-Bta-Phe-NH2 (peptide)” gave an IC50 activity group, enzyme release assay of under 50 nM.
Ac-Phe-[Orn-Hyp-hle-Pff-Nle] (peptide) gave an IC50 activity group, enzyme release assay of under 200 nM.
“H-Bal-Phe-[Orn-Hyp-hle-Trp-Nle] (peptide)” was tested, and the IC50 activity group, enzyme release assay was under 200 nM.
“Ac-Phe-Cit-Pro-cha-Bta-Phe-NH2 (peptide)” showed an IC50 activity group, enzyme release assay of under 200 nM.
“Ac-Phe-Orn-Hyp-hle-Pff-Phe-NH2 (peptide)” was tested, and the IC50 activity group, enzyme release assay was under 200 nM.
In the case of “Ac-Phe-Orn-Ser-cha-Bta-Phe-NH2 (peptide)”, the IC50 activity group, enzyme release assay is reported as under 50 nM.
“H2N-CO-Phe-Orn-Pro-cha-Bta-Phe-NH2 (peptide)” gave an IC50 activity group, enzyme release assay of under 50 nM.
Substance “Ac-Phe-Orn-Pro-cha-Bta-Mff-NH2 (peptide)” has an IC50 activity group, enzyme release assay of under 20 nM.
“H-Nip-Phe-Cit-Pro-hle-Bta-Phe-NH2 (peptide)” was tested, and the IC50 activity group, enzyme release assay was under 200 nM.
With H-Phe-[Orn-Hyp-hle-Mcf-Leu] (peptide) the IC50 activity group, enzyme release assay was under 200 nM.
For “Ac-Phe-Orn-Pro-hle-Pff-Mmy-NH2 (peptide)”, the IC50 activity group, enzyme release assay was under 200 nM.
“Ac-Phe-Orn-Pro-hle-Tff-Phe-NH2 (peptide)” gave an IC50 activity group, enzyme release assay of under 200 nM.
“Ac-Gly-Thi-Orn-Aze-cha-Bta-Phe-NH2 (peptide)” was tested, and the IC50 activity group, enzyme release assay was under 50 nM.
For “Ac-Phe-Orn-Aze-cha-Bta-NH-CH2-CH2-Ph (peptide)”, the IC50 activity group, enzyme release assay was under 2000 nM.
“Ac-Phe-Mpa-Pro-cha-Bta-Phe-NH2 (peptide)” gave an IC50 activity group, enzyme release assay of under 200 nM.
Work on “Ac-Phe-Orn-Pro-hle-Bta-Phe-NH2 (peptide)” yielded an IC50 activity group, enzyme release assay of under 20 nM.
With “Ac-Mff-Orn-Pro-hle-Bta-Phe-NH2 (peptide)” the IC50 activity group, enzyme release assay was under 200 nM.
Ac-Phe-[Orn-Hyp-hle-Bta-Phe] (peptide) gave an IC50 activity group, enzyme release assay of under 200 nM.
Substance “Ac-Phe-Orn-Aze-cha-Mcf-Phe-NH2 (peptide)” has an IC50 activity group, enzyme release assay of under 200 nM.
With Ac-Phe-[Orn-Pip-hle-Bta-Phe] (peptide) the IC50 activity group, enzyme release assay was under 200 nM.
With Ac-Phe-[Orn-Ser-hle-Trp-Nle] (peptide) the IC50 activity group, enzyme release assay was under 200 nM.
Substance H-Phe-[Orn-Pro-hle-Pff-Phe] (peptide) has an IC50 activity group, enzyme release assay of under 50 nM.
H-Phe-[Orn-Hyp-hle-Pff-Nle] (peptide) showed an IC50 activity group, enzyme release assay of under 200 nM.
Substance “Ac-Phe-Fcp-Aze-cha-Bta-Phe-NH2 (peptide)” has an IC50 activity group, enzyme release assay of under 50 nM.
In the case of “Ac-Phe-Fcn-Pro-cha-Bta-Phe-NH2 (peptide)”, the IC50 activity group, enzyme release assay is reported as under 20 nM.
Ac-Phe-[Orn-Hyp-hle-Mcf-Phe] (peptide) gave an IC50 activity group, enzyme release assay of under 200 nM.
With H-Phe-[Orn-Ser-hle-Trp-Nle] (peptide) the IC50 activity group, enzyme release assay was under 50 nM.
Substance “Ac-Phe-OrE-Pro-cha-Bta-Phe-NH2 (peptide)” has an IC50 activity group, enzyme release assay of under 200 nM.
H-Phe-[Orn-Pro-hle-Pff-Nle] (peptide) showed an IC50 activity group, enzyme release assay of under 200 nM.
Work on Ac-Phe-[Orn-Thr-cha-Trp-Nle] (peptide) yielded an IC50 activity group, enzyme release assay of under 200 nM.
H-Phe-[Orn-Ser-cha-Trp-Nle] (peptide) was tested, and the EC50, agonistic activity, enzyme release assay was over 1430 nM and the IC50 activity group, enzyme release assay was under 50 nM.
For H-Phe-[Orn-Hyp-hle-Trp-Nva] (peptide), the IC50 activity group, enzyme release assay was under 200 nM.
Work on “Ac-Off-Orn-Pro-cha-Bta-Phe-NH2 (peptide)” yielded an IC50 activity group, enzyme release assay of under 50 nM.
For “H-Bal-Phe-[Orn-Pro-hle-Pff-Nle] (peptide)”, the IC50 activity group, enzyme release assay was under 200 nM.
“tBu-CO-Phe-Orn-Pro-cha-Bta-Phe-NH2 (peptide)” was tested, and the IC50 activity group, enzyme release assay was under 200 nM.
Substance H-Phe-[Orn-Ser-hle-Ocf-Nle] (peptide) has an IC50 activity group, enzyme release assay of under 200 nM.
“Ac-Phe-Orn-Pro-hle-Egz-Phe-NH2 (peptide)” showed an IC50 activity group, enzyme release assay of under 200 nM.
Substance “Ac-Pff-Orn-Pro-cha-Bta-Phe-NH2 (peptide)” has an IC50 activity group, enzyme release assay of under 50 nM.
“Ac-Phe-[Orn-NMeAla-cha-Trp-Arg] (peptide)” showed an IC50, functional assay of 25 nM and an IC50 activity group, enzyme release assay of under 50 nM.
“Ac-Phe-Cit-Ser-hle-Bta-Phe-NH2 (peptide)” gave an IC50 activity group, enzyme release assay of under 200 nM.
Substance Ac-Phe-Orn-Tic-cha-Trp-Phe-OH (peptide) has an IC50 activity group, enzyme release assay of under 2000 nM.
“Ac-Phe-Bta-Aze-cha-Bta-Phe-NH2 (peptide)” gave an IC50 activity group, enzyme release assay of under 50 nM.
In the case of “Ac-Phe-Orn-Pro-hle-Pff-2Ni-NH2 (peptide)”, the IC50 activity group, enzyme release assay is reported as under 200 nM.
With “Ac-Phe-Orn-Pro-cha-Bta-Mcf-NH2 (peptide)” the IC50 activity group, enzyme release assay was under 200 nM.
Work on Ac-Phe-[Orn-Hyp-hle-Pff-Phe] (peptide) yielded an IC50 activity group, enzyme release assay of under 200 nM.
“Ac-Phe-Orn-Hyp-hle-Bta-Phe-NH2 (peptide)” was tested, and the IC50 activity group, enzyme release assay was under 200 nM.
“Ac-Phe-Orn-Pro-cha-Bta-1Ni-NH2 (peptide)” gave an IC50 activity group, enzyme release assay of under 200 nM.
Work on “Ac-Gly-Phe-Orn-Aze-cha-Bta-Phe-NH2 (peptide)” yielded an IC50 activity group, enzyme release assay of under 20 nM.
Substance H-Phe-[Orn-Pro-hle-Ocf-Phe] (peptide) has an IC50 activity group, enzyme release assay of under 200 nM.
With “Ac-Phe-Orn-Pro-cha-Bta-Pcf-NH2 (peptide)” the IC50 activity group, enzyme release assay was under 50 nM.
In the case of “Ac-Mff-Orn-Pro-cha-Bta-Phe-NH2 (peptide)”, the IC50 activity group, enzyme release assay is reported as under 200 nM.
In the case of “Ac-Lys-Phe-Orn-Aze-cha-Bta-Phe-NH2 (peptide)”, the IC50 activity group, enzyme release assay is reported as under 20 nM.
“Ac-Phe-Orn-Pro-hle-1Ni-Phe-NH2 (peptide)” was tested, and the IC50 activity group, enzyme release assay was under 50 nM.
“Ac-Phe-Orn-Aze-cha-Bta-Phe-NH2 (peptide)” showed an IC50 activity group, enzyme release assay of under 20 nM.
Substance “Ac-Phe-Orn-Pro-hle-Bta-Eaa-NH2 (peptide)” has an IC50 activity group, enzyme release assay of under 200 nM.
“Ac-Phe-Dap-Pro-cha-Bta-Phe-NH2 (peptide)” was tested, and the IC50 activity group, enzyme release assay was under 200 nM.
In the case of Ac-Phe-[Orn-Hyp-hle-Trp-Phe] (peptide), the IC50 activity group, enzyme release assay is reported as under 50 nM.
